The text below walks through data of article PMC9223585, “Structural and Functional Insights into CP2c Transcription Factor Complexes” (International Journal of Molecular Sciences, 2022).

A word on the stoichiometry N: it is the number of molecules, sites or subunits per partner or assembly.

The data set concerns the molecule itself. Put plainly: cross-linking + co-IP; DSP XL-WB: nuclear extracts of MDA-MB-231 cells, Benzonase, 2 mM DSP 30 min at room temperature, IP with CP2c, CP2b or PIAS1 antibodies, sequential Western blot with and without DTT. Background: In western blotting, separated proteins are transferred to a membrane and probed.

B1: CP2c (TFCP2), endogenous human (natural protein, human (endogenous in MDA-MB-231), UniProt Q12800-1 1-502, looked up)
chain: MAWALKLPLADEVIESGLVQDFDASLSGIGQELGAGAYSMSDVLALPIFKQEESSLPPDNENKILPFQYVLCAATSPAVKLHDETLTYLNQGQSYEIRMLDNRKLGELPEINGKLVKSIFRVVFHDRRLQYTEHQQLEGWRWNRPGDRILDIDIPMSVGIIDPRANPTQLNTVEFLWDPAKRTSVFIQVHCISTEFTMRKHGGEKGVPFRVQIDTFKENENGEYTEHLHSASCQIKVFKPKGADRKQKTDREKMEKRTPHEKEKYQPSYETTILTECSPWPEITYVNNSPSPGFNSSHSSFSLGEGNGSPNHQPEPPPPVTDNLLPTTTPQEAQQWLHRNRFSTFTRLFTNFSGADLLKLTRDDVIQICGPADGIRLFNALKGRMVRPRLTIYVCQESLQLREQQQQQQQQQQKHEDGDSNGTFFVYHAIYLEELTAVELTEKIAQLFSISPCQISQIYKQGPTGIHVLISDEMIQNFQEEACFILDTMKAETNDSYHIILK
notes: transcription factor CP2c (TFCP2, LBP-1c), endogenous in the human breast cancer line MDA-MB-231; both are human cells; also called α-CP2; LSF; source: endogenous, MDA-MB-231 nuclear and cytosolic lysate
As for B1, the “stoichiometry N” value came out at 4.
